The series in a line: yeast display, Sf9 membrane polyspecificity reagent, FACS + sequencing; frameworks hold sequencing errors. The procedure, abridged:
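Polyreactivity labels are assigned by the sorting gate from which each nanobody was recovered. The gates were low and high (top ~1%), set on anti-HA fluorescence for expression and streptavidin fluorescence for reagent binding. Before sorting, galactose-induced (36–48 hours) yeast display cells were stained for 1 hour at 4 °C with 10% biotinylated, detergent-solubilized Sf9 membrane reagent.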
With “QVQLVESGGGLVQAGGSLRLSCAASGRTFYRYTMGWYRQAPGKERELVAGISWRGGTTYYADSVKGRFTISRDNAKNTVYLQMNSLKPEDTAVYYCAAKAGYRYGSLAYYKYDYWGQGTQVTVSS”, the “polyreactivity (PSR sort gate)” value is “high polyreactivity”.

In the case of “QVQLVESGGGLVQAGGSLRLSCAASGRTFYSNAMGWYRQAPGKERELVAAISSSGSSTSYADSVKGRFTMSRDNAKNTVYLQMNSLKPEDTAVYYCAVRTKRRANRDYWGQGTQVTVSS”, the “polyreactivity (PSR sort gate)” value is given as “high polyreactivity”.

As to “QVQLVESGGGLVQAGGSLRLSCAASGRTFYSNSMGWYRQAPGKERELVATISWRGGSTYYADSVKGRFTISRDNAKNTVYFQMHSLKPEDTAVYYCAAGYYPYWGQGTQVTVSS”, the “polyreactivity (PSR sort gate)” value is on record as “low polyreactivity”.

As for “QVQLVESGGGLVQAGGSLRLSCAASGRTFYSNTMGWYRQAPGKEREFVAAIPSIVGSTYYADSVKGRFTISRDNAKNTVYLQMNSLKPEDTAVYYCATRYVVIEYDYWGQGTQVTVSS”, the “polyreactivity (PSR sort gate)” value was “low polyreactivity”.

For “QVQLVESGGGLVQAGGSLRLSCAASGRTFYSYAMGWYRQAPGKERELVAAISGRGGRTYYADSVKGRFTISRDNAKNTVYLQMNSLKPEDTAVYYCAKGGYAIRYYGFDYWGQGTQVTVSS”, the “polyreactivity (PSR sort gate)” value is reported as “high polyreactivity”.

For the sequence “QVQLVESGGGLVQAGGSLRLSCAASGRTFYSYAMGWYRQAPGKERELVAAISKRGTSTYYADSVKGRFTISRDNAKNTVYLQMNSLKPEDTAVYYCAAAYRGREVEYNSWGQGTQVTVSS”, the “polyreactivity (PSR sort gate)” value is reported as “high polyreactivity”.

Take “QVQLVESGGGLVQAGGSLRLSCAASGRTFYSYAMGWYRQAPGKERELVAAITSGDSTNYADSVKGRFTISRDNAKNTVYLQMNSLKPEDTAVYYCAAEYSGWYWYQHYNYWGQGTQVTVSS”: the “polyreactivity (PSR sort gate)” value is “high polyreactivity”.

Regarding “QVQLVESGGGLVQAGGSLRLSCAASGRTFYSYVMGWYRQAPGKEREVVAAIPRSGGSTNYADSVKGRFTISRDNAKNTVYFQMHSRKPEDTAVYYCASRAGRTLRTHYDYWGQGTQGTVSS”, the “polyreactivity (PSR sort gate)” value is “high polyreactivity”.

As for “QVQLVESGGGLVQAGGSLRLSCAASGRTFYTNAMGWYRQAPGKERELVAAITGDGTSTYYADSVKGRFTISRDNAKNTVYLEMNSLKPEDTAVYYCNATLPDYWPYYYYQGGDDYWGQGTQVTVSS”, the “polyreactivity (PSR sort gate)” value is on record as “low polyreactivity”.

For the sequence “QVQLVESGGGLVQAGGSLRLSCAASGRTFYTNAMGWYRQAPGKERELVAGISWGDGNTYYADSVKGRFTISRDNAKNTVYLQMNSLKPEDTAVYYCAVTYIILWSYSHTEFDYWGQGNQVTVSS”, the “polyreactivity (PSR sort gate)” value is recorded as “low polyreactivity”.

On to “QVQLVESGGGLVQAGGSLRLSCAASGRTFYTNAMGWYRQAPGKERELVAVISRGGTTYYADSVKGRFTISRDNEKNTVYIQMNSLKPEDTAFYYCAIQSPSGDSSSQMGSWGQGTQVTVSS”, for which the “polyreactivity (PSR sort gate)” value was “low polyreactivity”.

For “QVQLVESGGGLVQAGGSLRLSCAASGRTFYTNGMGWYRQAPGKEREFVAGITYRGGGTYYADSVKGRFTISRDNAKNTVYLQMNSLKPEDTAVYYCNTRWILGRRFYYWGQGTQVTVSS”, the “polyreactivity (PSR sort gate)” value is listed as “high polyreactivity”.

For the sequence “QVQLVESGGGLVQAGGSLRLSCAASGRTFYTYAMGWNRQAPGKEREFVAAITGSGGSTYYADSVKWRFTISRDNAKNTVYLQMTSLKPDDRAVYYCNAGSPGDVWYYYWGQGTQVTVSS”, the “polyreactivity (PSR sort gate)” value is given as “low polyreactivity”.

As to “QVQLVESGGGLVQAGGSLRLSCAASGRTFYTYAMGWYRQAPGKERELVAAISSDGSTYYADSVKGRFTISRDNAKNTVYLQMNSLKPEDTAVYYCAADYSPWYWGYTYYYWGQGTQVTVSS”, the “polyreactivity (PSR sort gate)” value is on record as “high polyreactivity”.

As for “QVQLVESGGGLVQAGGSLRLSCAASGRTFYVNAMGWYRQAPGKERELVAAINTIGGRTYYADSVKGRFTISRDNAKNTVYLQMNSLKTEDTAVYYCAARQVSRWGYDYWGQGTQVTVSS”, the “polyreactivity (PSR sort gate)” value was “high polyreactivity”.

With “QVQLVESGGGLVQAGGSLRLSCAASGRTFYVYAMGWYRQAPGKERELVAAISWGGGSTYYADSVKGRFTISRDNAKNTVYLQMNSLKPEDTAVYYFAAESWTSGTNVPVWYYGYSWGQGTQVTVSS”, the “polyreactivity (PSR sort gate)” value is given as “low polyreactivity”.

Turning to “QVQLVESGGGLVQAGGSLRLSCAASGRTFYVYAMGWYRQAPGKERELVAAISWRGGSTYYADSVKGRFTISRDNAKNTVYLQMNSLKPEDTAVYYCATAGGDWYGVDYWGQGTQVTVSS”, the “polyreactivity (PSR sort gate)” value is “low polyreactivity”.

With “QVQLVESGGGLVQAGGSLRLSCAASGRTFYVYAMGWYRQAPGKERELVAAITASGGSTYYADSVKGRFTLSRDNAKNTVYLQMNSLKPEDTAVYYCAARVVTLVRGVGYNYWGQGTQVTVSS”, the “polyreactivity (PSR sort gate)” value is on record as “high polyreactivity”.

Take “QVQLVESGGGLVQAGGSLRLSCAASGRTFYVYAMGWYRQAPGKERELVAAITYTGGDTYYADSVKGRFTISRDNAKNTVYLQMNSLKPEDTAVYYCAADFGPYYRFDYWGQGTQVTVSS”: the “polyreactivity (PSR sort gate)” value is on record as “low polyreactivity”.

Take “QVQLVESGGGLVQAGGSLRLSCAASGRTFYVYAMGWYRQAPGKERELVATITSRGGRTYYADSVKGRFTISRDNAKNTVYLQMNSLKPEDTAVDYCNAAWWKVSYVRQKYFYWGQGTQVTVSS”: the “polyreactivity (PSR sort gate)” value is “high polyreactivity”.

On to “QVQLVESGGGLVQAGGSLRLSCAASGRTFYVYAMGWYRQAPGKVSELVAAISASGGRTYYADSVKGGFTISRDNAKNTVYLQMNSLKPEDTAVYYCAAEGRRGGKDYDYWGQGTQVTVSS”, for which the “polyreactivity (PSR sort gate)” value is on record as “high polyreactivity”.

With “QVQLVESGGGLVQAGGSLRLSCAASGRTFYVYTMGWYRQAPGKERELVAGISYSGGSTYYADSVKGRFTISRDNAKNTVYLQMNSLKPEDTAVYYCNRGLAARVGRGDYWGQGTQVTVSS”, the “polyreactivity (PSR sort gate)” value is recorded as “low polyreactivity”.

Regarding “QVQLVESGGGLVQAGGSLRLSCAASGRTFYWNAMGWYRQAPGKERELVAAITRNGGSTYYADSVKGRFTISRDNAKNTVYLQMNSLKPEDTAVYYCAARKRYGAGYDYWGQGTQVTVSS”, the “polyreactivity (PSR sort gate)” value is “high polyreactivity”.

Turning to “QVQLVESGGGLVQAGGSLRLSCAASGRTFYWYAMGWYRQAPGKERELVAAIRWSTGSTYYADSVKGRFTISRDNAKNTVYLQMNSLKPEDTAVYYCAATRPSWRYNYWGQGTQVTVSS”, the “polyreactivity (PSR sort gate)” value is “high polyreactivity”.

“QVQLVESGGGLVQAGGSLRLSCAASGRTFYWYTMGWYRQATGKERELVAAISIGGITSYADSVKGRFTISRDNAKNTVYLQMNSLKPEDTAVYYCAAPLSYKNVKYDYWGQGTQVTVSS”: the “polyreactivity (PSR sort gate)” value is on record as “low polyreactivity”.

Regarding “QVQLVESGGGLVQAGGSLRLSCAASGRTFYYNAMGWYRQAPGKERELVAAISGRGGSTYYADSVKGRFTISRDNAKNTVYLQMNSLKPEDTAVYYCNAVRYKYTGRFGYWGQGTQVTVSS”, the “polyreactivity (PSR sort gate)” value is on record as “high polyreactivity”.

On to “QVQLVESGGGLVQAGGSLRLSCAASGRTFYYNAMGWYRQAPGKERELVAAISSGDSTYYADSVKGRFTISRDNAKNTVYLQMNSLKPEDTAVYYCNKYVAYDYWGQGTQVTVSS”, for which the “polyreactivity (PSR sort gate)” value was “low polyreactivity”.

In the case of “QVQLVESGGGLVQAGGSLRLSCAASGRTFYYNAMGWYRQAPGKERELVAAISWSGGSTYYADSVKGRFTISRDNAKNTVYLQMNSLKPEDTAVYYCAAGAYSYRKYRSYDYWGQGTQVTVSS”, the “polyreactivity (PSR sort gate)” value was “high polyreactivity”.

“QVQLVESGGGLVQAGGSLRLSCAASGRTFYYNAMGWYRQAPGKERELVAVITRGSTYYADSVKGRFSISRDNAKNTVYLQMKSLKPEDTAVYYCCKYRHYHRGYDYWGQGTQVTVSS”: the “polyreactivity (PSR sort gate)” value is reported as “high polyreactivity”.

Consider “QVQLVESGGGLVQAGGSLRLSCAASGRTFYYNAMGWYRQAPGKEREMVADINWSGVRTYYADSVKGRFTISRDNAKNTVYLQMNSLKPEDTAAYYCAAERLLYKHYEEDYWGQGTQVTVSS”, for which the “polyreactivity (PSR sort gate)” value is given as “low polyreactivity”.

For the sequence “QVQLVESGGGLVQAGGSLRLSCAASGRTFYYNAMGWYRQAPGKERQLVAAITSSGSTYYADSVKGRFTISRDNAKNTVYLQMNSLKPEDTAVYYCASVTSYSHYRLSGWYRFEYWGQGTQVTVSS”, the “polyreactivity (PSR sort gate)” value is “high polyreactivity”.

As to “QVQLVESGGGLVQAGGSLRLSCAASGRTFYYNTMGWYRQAPGKERELVAAITRGGSTYYADSVKGRFTISRVNAKNTVYLQMNSLKPEETAVYYCNAPRYLRRYVKDHDYWGEGTQVTVSS”, the “polyreactivity (PSR sort gate)” value is recorded as “high polyreactivity”.

With “QVQLVESGGGLVQAGGSLRLSCAASGRTFYYYAMGWNRQAPGTERELVAAITTDGGNTYYADSVKGRFTISRDTAKNTVYLQMNSLKPEDTAVYYCATDGYEYTDYGSSGYDYWGQGTQVTVSS”, the “polyreactivity (PSR sort gate)” value is “low polyreactivity”.

Turning to “QVQLVESGGGLVQAGGSLRLSCAASGRTFYYYAMGWSRQAPGKERELVAAIRWRATSTFYADSVKGRFTISRDNAKNTVYLQMNSLKPEDSAVYYCATTGGYRLQAQKYYYWGQGTQVTLSS”, the “polyreactivity (PSR sort gate)” value is recorded as “high polyreactivity”.

As to “QVQLVESGGGLVQAGGSLRLSCAASGRTFYYYAMGWYIPAPGKERELVARISYSGSNTYYADSVKGRFTISRDTAKNTVYLQMNSLKREVTAGYYCAAGYLVWRDSATLDYWGQGTQVTVSS”, the “polyreactivity (PSR sort gate)” value was “high polyreactivity”.

In the case of “QVQLVESGGGLVQAGGSLRLSCAASGRTFYYYAMGWYRPAPGKERELVAAIRRSGSSTYYADSVKGRFTISRDNAKNTVYLQMNSLKPEDTAVYYCAAAVYQRARYYWGQGTQVTVSS”, the “polyreactivity (PSR sort gate)” value is “high polyreactivity”.

As for “QVQLVESGGGLVQAGGSLRLSCAASGRTFYYYAMGWYRQAPCKERELVSAITTDGGNTYYADSVKGRFTISRDNAKNTVYLQMNSLKPEDTAVYYCATDGYEYTDYGSSGYDYWGQGTQVTVSS”, the “polyreactivity (PSR sort gate)” value was “low polyreactivity”.

As to “QVQLVESGGGLVQAGGSLRLSCAASGRTFYYYAMGWYRQAPGKERELVAAISGSGGSTYYADSVKGRFTISRDIAKNTVYLQMNSLKPEDTAVYYCAASGPRRRYDYWGQGTQVTVSS”, the “polyreactivity (PSR sort gate)” value is on record as “high polyreactivity”.

With “QVQLVESGGGLVQAGGSLRLSCAASGRTFYYYAMGWYRQAPGKERELVAAISKSGGSTYYADSVKGRFTISRDNAKNTVYLQMNSLKPEDTAVYYCAALTTHAPHSYNYWGQGTQVTVSS”, the “polyreactivity (PSR sort gate)” value is recorded as “low polyreactivity”.

Take “QVQLVESGGGLVQAGGSLRLSCAASGRTFYYYAMGWYRQAPGKERELVAAISWSGGSTYYADSVKGRFTISRDNAKNTVYLQMNSLKPEDTAVYYCAARLPENSFGLYYYWGQGTQVTVSS”: the “polyreactivity (PSR sort gate)” value was “high polyreactivity”.

In the case of “QVQLVESGGGLVQAGGSLRLSCAASGRTFYYYAMGWYRQAPGKERELVARISRGGSTNYADSVKGRFTISRDNAKNTVYLQMNILKPEDTAVYYCAKTISYTGRFWGYDYWGQGTQVTVSS”, the “polyreactivity (PSR sort gate)” value is on record as “high polyreactivity”.
